Test results as given in FireProtDB (doi:10.1128/aem.02129-17).

B1: Lipase, P19515 (parent)
chain: MVLKQRANYLGFLIVFFTAFLVEAVPIKRQSNSTVDSLPPLIPSRTSAPSSSPSTTDPEAPAMSRNGPLPSDVETKYGMALNATSYPDSVVQAMSIDGGIRAATSQEINELTYYTTLSANSYCRTVIPGATWDCIHCDATEDLKIIKTWSTLIYDTNAMVARGDSEKTIYIVFRGSSSIRNWIADLTFVPVSYPPVSGTKVHKGFLDSYGEVQNELVATVLDQFKQYPSYKVAVTGHSLGGATALLCALDLYQREEGLSSSNLFLYTQGQPRVGDPAFANYVVSTGIPYRRTVNERDIVPHLPPAAFGFLHAGEEYWITDNSPETVQVCTSDLETSDCSNSIVPFTSVLDHLSYFGINTGLCT

Variants of: B1
Conditions: Rhizomucor miehei; pH 8; Thermal; DSF; sodium phosphate buffer 50 mM; structure 6QPR; whole UniProt chain shown

Variant: MVLKQRANYLGFLIVFFTAFLVEAVPIKRQSNSTVDSLPPLIPSRTSAPSSSPSTTDPEAPAMSRNGPLPSDVETKYGMALNATSYPDSVVQAMSIDGGIRAATSQEINELKYYTILSANSYCRTVIPGATWDCIHCDATEDLKIIKTWSTLIYDTNAMVARGDSEKTIYIVFRGSSSIRNWIADLTFVPVSYPPVSGTKVHKGFLDSYGEVQNELVATVLDQFKQYPSYKVAVTGHSLGGATALLCALDLYQREEGLSSSNLFLYTQGQPRVGDPAFANYVVSTGIPYRRTVNERDIVPHLPPAAFGFLHAGEEYWITDNSPITVQVCTSDLETSDCSNSIVPFTSVLDHLSYFGINTGLCT [T112K T116I E324I]
- Tm: 68.1 °C
- change of melting temperature, mutant - wild type (higher = more stable): 9.4 °C

Variant: MVLKQRANYLGFLIVFFTAFLVEAVPIKRQSNSTVDSLPPLIPSRTSAPSSSPSTTDPEAPAMSRNGPLPSDVETKYGMALNATSYPDSVVQAMSIDGGIRAATSQEINELKYYTILSANSYCRTVIPGATWDCIHCDATEDLKIIKTWSTLIYDTNAMVARGDSEKTIYIVFRGSSSIRNWIADLTFVPVSYPPVSGTKVHKGFLDSYGEVQNELVATVLDQFKQYPSYKVAVTGHSLGGATALLCALDLYQREEGLSSSNLFLYTQGQPRVGDPAFANYVVSTGIPYRRTVNERDIVPHLPPAAFGFLHAGEEYWITDNSPETVQVCTSDLETSDCSNSIVPFTSVLDHLSYFGINTGLCT [T112K T116I]
- Tm: 64 °C
- change of melting temperature, mutant - wild type (higher = more stable): 5.3 °C

Variant: MVLKQRANYLGFLIVFFTAFLVEAVPIKRQSNSTVDSLPPLIPSRTSAPSSSPSTTDPEAPAMSRNGPLPSDVETKYGMALNATSYPDSVVQAMSIDGGIRAATSQEINELKYYTTLSANSYCRTVIPGATWDCIHCDATEDLKIIKTWSTLIYDTNAMVARGDSEKTIYIVFRGSSSIRNWIADLTFVPVSYPPVSGTKVHKGFLDSYGEVQNELVATVLDQFKQYPSYKVAVTGHSLGGATALLCALDLYQREEGLSSSNLFLYTQGQPRVGDPAFANYVVSTGIPYRRTVNERDIVPHLPPAAFGFLHAGEEYWITDNSPETVQVCTSDLETSDCSNSIVPFTSVLDHLSYFGINTGLCT [T112K]
- Tm: 63.2 °C
- change of melting temperature, mutant - wild type (higher = more stable): 4.5 °C

Variant: MVLKQRANYLGFLIVFFTAFLVEAVPIKRQSNSTVDSLPPLIPSRTSAPSSSPSTTDPEAPAMSRNGPLPSDVETKYGMALNATSYPDSVVQAMSIDGGIRAATSQEINELIYYTTLSANSYCRTVIPGATWDCIHCDATEDLKIIKTWSTLIYDTNAMVARGDSEKTIYIVFRGSSSIRNWIADLTFVPVSYPPVSGTKVHKGFLDSYGEVQNELVATVLDQFKQYPSYKVAVTGHSLGGATALLCALDLYQREEGLSSSNLFLYTQGQPRVGDPAFANYVVSTGIPYRRTVNERDIVPHLPPAAFGFLHAGEEYWITDNSPETVQVCTSDLETSDCSNSIVPFTSVLDHLSYFGINTGLCT [T112I]
- Tm: 58.1 °C
- change of melting temperature, mutant - wild type (higher = more stable): -3 °C

Variant: MVLKQRANYLGFLIVFFTAFLVEAVPIKRQSNSTVDSLPPLIPSRTSAPSSSPSTTDPEAPAMSRNGPLPSDVETKYGMALNATSYPDSVVQAMSIDGGIRAATSQEINELWYYTTLSANSYCRTVIPGATWDCIHCDATEDLKIIKTWSTLIYDTNAMVARGDSEKTIYIVFRGSSSIRNWIADLTFVPVSYPPVSGTKVHKGFLDSYGEVQNELVATVLDQFKQYPSYKVAVTGHSLGGATALLCALDLYQREEGLSSSNLFLYTQGQPRVGDPAFANYVVSTGIPYRRTVNERDIVPHLPPAAFGFLHAGEEYWITDNSPETVQVCTSDLETSDCSNSIVPFTSVLDHLSYFGINTGLCT [T112W]
- Tm: 57.8 °C
- change of melting temperature, mutant - wild type (higher = more stable): -2.2 °C

Variant: MVLKQRANYLGFLIVFFTAFLVEAVPIKRQSNSTVDSLPPLIPSRTSAPSSSPSTTDPEAPAMSRNGPLPSDVETKYGMALNATSYPDSVVQAMSIDGGIRAATSQEINELKYYTTLSANSYCRTVIPGATWDCIHCDATEDLKIIKTWSTLIYDTNAMVARGDSEKTIYIVFRGSSSIRNWIADLTFVPVSYPPVSGTKVHKGFLDSYGEVQNELVATVLDQFKQYPSYKVAVTGHSLGGATALLCALDLYQREEGLSSSNLFLYTQGQPRVGDPAFANYVVSTGIPYRRTVNERDIVPHLPPAAFGFLHAGEEYWITDNSPITVQVCTSDLETSDCSNSIVPFTSVLDHLSYFGINTGLCT [T112K E324I]
- Tm: 66.7 °C
- change of melting temperature, mutant - wild type (higher = more stable): 8 °C

Variant: MVLKQRANYLGFLIVFFTAFLVEAVPIKRQSNSTVDSLPPLIPSRTSAPSSSPSTTDPEAPAMSRNGPLPSDVETKYGMALNATSYPDSVVQAMSIDGGIRAATSQEINELKYYTILSANSYCRTVIPGATWDCIHCDATEDLKIIKTWSTLIYDTNAMVARGDSEKTIYIVFRGSSSIRNWIADLTFVPVSYPPVSGTKVHKGFLDSYGEVQNELVATVLDQFKQYPSYKVAVTGHSLGGATALLCALDLYQREEGLSSSNLFLYTQGQPRVGDPAFANYVCSTGIPYRRTVNERDIVPHLPPAAFGFLHAGEEYWITDNSPITVQVCTSCLETSDCSNSIVPFTSVLDHLSYFGINTGLCT [T112K T116I E324I V283C D332C]
- Tm: 72.3 °C
- change of melting temperature, mutant - wild type (higher = more stable): 13.6 °C

Variant: MVLKQRANYLGFLIVFFTAFLVEAVPIKRQSNSTVDSLPPLIPSRTSAPSSSPSTTDPEAPAMSRNGPLPSDVETKYGMALNATSYPDSVVQAMSIDGGIRAATSQEINELKYYTILSANSYCRTVIPGATWDCIHCDATEDLKIIKTWCTLIYDTCAMVARGDSEKTIYIVFRGSSSIRNWIADLTFVPVSYPPVSGTKVHKGFLDSYGEVQNELVATVLDQFKQYPSYKVAVTGHSLGGATALLCALDLYQREEGLSSSNLFLYTQGQPRVGDPAFANYVVSTGIPYRRTVNERDIVPHLPPAAFGFLHAGEEYWITDNSPITVQVCTSDLETSDCSNSIVPFTSVLDHLSYFGINTGLCT [T112K T116I E324I S150C N157C]
- Tm: 69.3 °C
- change of melting temperature, mutant - wild type (higher = more stable): 10.6 °C
